According to a protein production outcome set (Wang et al. 2014):

Assay: label from the status in PepcDB records

Row | Sequence | protein production
1 | MKTEMLHTQEDILKMLDSLLRPAEPFWNEFYENREKDVPFFENVPDENLVSYIQKERVLKGKVLELGCGPGRNAIYLANEGFDVTAVDLSVEGINWAKERALAKGVEIHFICDSIFNLEVQNEFDFVYDSGCLHHIPPHRRINYVDLIKNSLKSGGYFGLTCFAAGDLDERNGSEITDWDVYREWSLQGGLAYSEEKLREIFKELEVIEIRRMKQMKQPNEMFGESFLWTALFKKK | failed
2 | MKTEMTNVDISVAVSELQKVINGKLDKAFLVNNQDGKELILKVHIPEIGSREIAIGLGKYKYMTLTEYEREKPRNPPSFVMLLRKHLKNIKITSVAQHNFDRIVIFNFEWNELKYKLIIELFGDGNAILLDSEDKIILPLKIERWSTRKIVPKEIYKFPPQKDLDPKNLDYSLAKKLFIEEFEKEENKDTEVVRIISRTFGLAGVYSEEICLNSEIDKNLKNPKNEEIEKLFEGSKSFFKKVFGELKPKSTLKNGEFVNIDPIDLKIHENLKENEIKHYESFLTALDEYFSRFIMKKEIKQAESKLQKLVKKQERILKSQLDTKDKYEKQSVSNHKRGDLIYANYSLVDEIVSTIKDAREKMDWNGIKNVIKENKTHPILSKIINVNEKNAELTLKLSADYGNGLIEDSVPVDLRKNAFENADIVYQKSKKFKNKVQGVIEALKISEKKLAELKEKEKLDSEVFKEKEEKIKKKERK | failed
3 | MKTIRLWDLPTRLFHWLLVIAVVGAVATVKLGAGWMAWHERFGLAVVGLLAFRVVWGLVGSTYARFSQFISGPGAMIRYLRGQWQGAGHNPLGAWSVLLLLGLFGFQAVTGLFANDEIAFNGPLYRLVSSGWSDTLSSWHRLMEWGLYAVVALHVLAVLFYTHVRKDNLIKPMVTGRKQVQSSELKDASGGGWLAMIIALAIAVAVVWAASGGLIPPPPPPPQNLGW | failed
4 | MKTITTFENKKVLVLGLARSGEAAARLLAKLGAIVTVNDGKPFDENPTAQSLLEEGIKVVCGSHPLELLDEDFCYMIKNPGIPYNNPMVKKALEKQIPVLTEVELAYLVSESQLIGITGSNGKTTTTTMIAEVLNAGGQRGLLAGNIGFPASEVVQAANDKDTLVMELSSFQLMGVKEFRPHIAVITNLMPTHLDYHGSFEDYVAAKWNIQNQMSSSDFLVLNFNQGISKELAKTTKATIVPFSTTEKVDGAYVQDKQLFYKGENIMSVDDIGVPGSHNVENALATIAVAKLAGISNQVIRETLSNFGGVKHRLQSLGKVHGISFYNDSKSTNILATQKALSGFDNTKVILIAGGLDRGNEFDELIPDITGLKHMVVLGESASRVKRAAQKAGVTYSDALDVRDAVHKAYEVAQQGDVILLSPANASWDMYKNFEVRGDEFIDTFESLRGE | not failed
5 | MKTLFLQYPACSTCQKAKKWLIENNIEYTNRLIVDDNPTVEELKAWIPLSGLPVKKFFNTSGVVYKELKLSSKLPTMTEEEQIALLATNGKLVKRPLVVTERFVLVGFKPEEWEKL | not failed
6 | MKTLHTDVAIIGAGTAGLAAYRAARAAGKRALLIEGGQYGTTCARVGCMPSKLLIAAAEAAHAAAHGGPFGVHIDGAVRIDGAQVMARVKSERDRFVGFVLEGVENIPAEDKLRGMARFVEDTVLRVDGHTEVRAGSVVIASGSRPAVPPPFLALGDRLVVNDDVFAWDTLPARVAVFGPGVIGLELGQALARLGVQVRVFGVSGSLGGITDPRVRQSARKAFQQEFYLDPDARVLETKRVGDEVEVRYVALDNTERTERFDYALVATGRRPNVDGLDLHNTSLALDARGVPHFDRHTMQAGQAPVFIAGDANADAPLLHEAADEGRIAGENAARYPDVAPGLRRAALGVVFSDPQIALVGTPFARLESGTFVAGEVDFGDQGRSRVMLRNRGMLRVYADIESGRFVGAEMVGPSAEHIGHLLAWAAQQSLTVAQMLEMPFYHPVVEEGLRTALRDAAARLAQARPQRLAA | failed
7 | MKTTIAAALQQYFLNDNTACYVLTGDNYPHRIPMRNDEERLNVYNESGEDGLRGYLGTPKEIDFDRINKELSEFKAGKDIIEIKHMGREDGDISYDETDFTGIKVLILEWTHGGSEYLKGVDIPVFLESSPEETKARRIKRGRDENAASPFICRVVELEQEKLDLQGKNARIVVGKDGKVYEQLEHHHHHH | failed
8 | MKTTTIFTAALLACLSAPAHAQDLRGSEAGAVMKRESDVRDYYELQQRLKESRESRPEEAVTDRTEPAPQPPADGGQRVFISHIVTDPSEILTEDDLRQVVAPLEGKEVSIRELLAMVDRINDLYRQKGYLTARAVLPPQKVERGTVRIRLVEGRVGRISVGGNRHTRDWFVTSRLHLREGDLVRLDTLENDLFRFNAINDVKLRAEVKPGTATGTTDLILRTQEPDNYRVVAFADNGGGRYIGQERLGLTLQDLSLLGIRDPLTVGGTVADGTLSAHASYSLPLTPVGTRLGVTYDYTSIWITSGPFESLDVDGTSSDLGLTLSQPFALSPALSVTTFAGFNWKKSTTDFGGDTIFENRTRTLTLGGDLLAIDGYGTWFTRHVLTQGFHDFGGDRSFFKYNGDLVRTFILPDDFSALVRASGQVSGNHLLPSSEQFQLGGIATVRGFYEGLLIGDDGYFVSAELTLPLFPADASVYDVRLSPLLRGAIFFDHGGAFPYKGSGESIDHNDFLSSAGFGFILNLAKYLTGRIDFGFPVGERDPDPGTVRVHFSLSSEIL | failed
9 | MKTYALVMAGGRGERLWPLSREDRPKPFLPLFEGKTLLEATLERLAPLVPPERTLLAVRRDQEAVARPYADGIRLLLEPLGRDTAGAVLLGVAEALKEGAERLLVLPADHYVGDDEAYREALATMLEAAEEGFVVALGLRPTRPETEYGYIRLGPREGAWYRGEGFVEKPSYAEALEYIRKGYVWNGGVFAFAPATMAELFRRHLPSHHEALERLLAGASLEEVYAGLPKISIDYGVMEKAERVRVVLGRFPWDDVGNWRALERVFSQDPHENVVLGEGRHVALDTFGCVVYADRGVVATLGVSGLVVAKVGDEVLVVPKDWAREVREVVKRLEAQE | not failed
10 | MKVAVIGSGISGLGSAYVLANQGVKEVVLYEKEESLGGHAKTVRFDGVDLDLGFMVFNRVTYPNMIEFFENLGVEMEVSDMSFAVSLDNGKGCEWGSRNGVSGLFAQKKNVLNPYFWQMIREIVRFKEDVLNYIEKLEGNPDIDRKETLGEFLNTRGYSELFQQAYLVPICGSIWSCPSDGVLSFSAYSVLSFCCNHHLLQIFGRPQWLTVAGRSQTYVAKVRAELERLGCKIRTSCDVKSVSTSENGCVTVTSGDGSEEVFDRCILAMHAPDALRLLGEEVTFDESRVLGAFQYVYSDIYLHHDIDLMPRNKAAWSAWNFLGSTEKKVCVTYWLNILQNLGENSEPFFVTLNPDETPKKALLKWTTGHPVPSVAASIASQELHQIQGKRNIWFCGAYQGYGFHEDGLKAGMAAARGLLGKETALLNNPRHMVPSLTETGARLFVTRFLGQFISTGSVTILEEGGTMFTFGGKDSTCPLKSILKIHSPQFYWKVMTQADLGLADAYINGDFSFVDKESGLLNLIMILIANRDTKSNLTKKRGWWTPMFLTAGLASAKYFLKHVSRQNTLTQARRNISRHYDLSNELFGLFLDDTMTYSSAVFKSDDEDLRTAQMRKISLLIDKARIEKDHEVLEIGCGWGTLAIEVVRRTGCKYTGITLSIEQLKYAEEKVKEAGLQDRITFELRDYRQLSDAHKYDRIISCEMLEAVGHEFMEMFFSRCEAALAEDGLMVLQFISTPEERYNEYRLSSDFIKEYIFPGACVPSLAKVTSAMSSSSRLCIEHVENIGIHYYQTLRLWRKNFLERQKQIMALGFDDKFVRTWEYYFDYCAAGFKTRTLGDYQLVFSRPGNVAAFADSYRGFPSAYCVS | failed
11 | MKVAVLDFGKTNSKLFVFGQDGGILDERRTQPKWTHQDGFSVLDEAALHDWALGAVTEAVENHGVEGVMVSGHGCTFALVDDAALTHPILDYEQEPPAEIAARIDHRIPDFAETFSPRLPLGFNYGRHMLWVQEVDPDAFAAAKSILGYPQYWSWRLGGRPVSEVSYLGCHSHLWAPRSQDFSSLVDAEGWRGQMPAFARAGAVIGERRLGSSSRPIAIHNGVHDSNAALHAYRRQELGPLTVVSTGTWVVVLNPGCPLDVLDRDRDMLVNVDVDGGPVPTIRFMGGREFAAISAGWQGAIPPGAVQQAIDAGIMALPSFAPGGPMPDRPGRLVGRTPYAAERAAAALLYVALMVDLCLDLIQSQDTVIVDGGLNAGGLLAGLLAELRPGQAFLQGATLEGSATGAAALAFESVGRDFVAEAPEPVHAARFAGLAGYRDAWRDRVGGQGTAIKAAGGARLEHHHHHH | failed
12 | MKVDREKYGSEKIAKLKILEELKKENPNKKIIAIGNGNNDELLLKNADLGICVIGDEGAWSKTILSSDIVVKDINDALDLLLNENRLKATSRD | failed
13 | MKVEFLMTNHNHQHHHSHAHGHVHTDNKKVLMFSFIIISLFMLVEIIGGFLANSLALLSDGFHMLSDAISLGVALIAFIYAEKHATKSKTYGYKRFEILAALFNGVTLFIISIIIIIEAIRRFLEPPEVQSKEMFIISVIGLMVNIIVAILMFKGGDTSHNLNMRGAFLHVLGDLFGSVGAIVASLLIWGFNFTIADPIASILVSLIILKSAYGISKSSLNILMEGTPNDIDLNAVIKAISKDERIQNVHDCHVWTISNDMNALSCHAVVPEYLSVQTCETMLKSIESDLLQLNIQHMTIQLETPEHKHDESTLCSGIHEHSH | failed
14 | MKVERLSQPAQHLLTAGVENENSFALDTESVFTSAFLRAARGDARSSSRSDVVSLSEIVLEINQSIDELRVEKPAIKMSPQKYLLRNENNAGEFFFIKKARSEGYLQGRTGDPGAGGVDVSGPSDVRIPNRVTIGPDTVLFHPATGAPLLWFVRDGFDYDFFDGSGFHPRTGAKLAPFTKEEALIFEKRIREKEAEIRREAERVEKDRADREARDFAAKEALARKQEEDRKLREAEAARASEAGQRCDELAANPNDRNKVGQGASFSALKAQAADAVKACDLALKQKPSELRFKYQLARALQFSDRPRSFKLHKELVGQGYAASYDNLGWMYYTDRKDKPQAIVLFRQGIQVGDVDSMVSLAELVDRAEATPANASESKIELCRRAAELGHVGAAQCYQVEVAKQEQAEKDRAQQLEQQKMMIQLMGTIIQSATRR | failed
15 | MKVIGINGSPRRAGNTSIMLKTIFEVLEDEGIETELIQVGGTNIKGCRACYACIKNKNSECSTKGDGFNEIFAKMVEADGMILGSPTYFADITPELKALIDRAGFVSRTNGQLFRHKVGASVVSLRRGGGIHAYDSINHLFQICQMFMVGSTYWNLGFGGRDGGEVVNDTEGMENMRDLGHSMAFLLKKLHNLEHHHHHH | not failed
16 | MKVIKTAPLIPSEIKVLEKEGNRVKISLAPFEFGYAVTLAHPIRRLLLLSSVGYAPVGLKIEGVHHEFDSLRGVTEDVSLFIMNLKNIRFIAKALVGQDSSLENQSVVVDYSFKGPMELRARDLNSEQIEIVNPEMPLATINEDAQLNFSLIIYKGMGYVPSENTRELMPEGYMPLDGSFTPIKKVVYEIENVLVEGDPNYEKIIFDIETDGQIDPYKAFLSAVKVMSKQLGVFGERPIANTEYSGDYAQRDDAKDLSAKIESMNLSARCFNCLDKIGIKYVGELVLMSEEELKGVKNMGKKSYDEIAEKLNDLGYPVGTELSPEQRESLKKRLEKLEDKGGND | failed
17 | MKVKKLVGTLLATALFFSALTATYYYQKYQALLANNVENTAKEALHQLAYTGREYNNIQDQIETISDLLGHSQSLYDYLREPSKANLTILENMWSSVARNQKLYKQIRFLDTSGTEKVRIKYDFKTSIAGPSLILRDKSAREYFKYAQSLDNEQISAWGIELERDKGELVYPLSPSLRILMPISVNDVRQGYLVLNVDIEYLSSLLNYSPVRDFHIELVKHKGFYIASPDESRLYGDIIPERSQFNFSNMYPDIWPRVVSEQAGYSYSGEHLIAFSSIKFVSNEPLHLIIDLSNEQLSKRATRDINDLIQESLFVLSLVLVFTLPITALALHYRRHSVESKLARAALDGMTAVMISDASLRIIMVNQEFENMMGYSTEQVKGSNAHSLILLPEDLEETLNIWNKLGRENVWEGEVRCRTQLNHVFTAIMRIQANLTKSGKISYYITSLVDISERKALEEQLRNLSEKDGLTGLWNRRKFEEQLTHYANIVERYPDTPTTCLALFDIDHFKRINDERGHDEGDKVICSVAETLLREVRTTDFVSRVGGEEFAVIMPHTTVKEAEVVLNRLRVAVQLRSNMTVTVSAGYSDLTADRTRSYKCADIALYESKSAGRNCVSLCHSIDDIA | failed
